Data published in the RNAGym collection of RNA variant scans (doi:10.1073/pnas.2313332121).

B1: TPR t1 (parent)
chain: GACCAAUCUGCCCUCAGAGCUCGAGAACAUCUUCGGAUGCAGAGGAGGCAGGCUUCGGUGGCGCGAUAGCGCCAACGUCCUCAACCUCCAAUGCAUCCCACCACAUGAUGAUGCCUGAAGAGCCUUGGUUUUUUG

Variants of: B1
Experiment: polymerase ribozyme fitness, log enrichment relative to wild type (log ratio); higher = more active; in vitro selection for triplet polymerase activity
Outline: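 After PCR construction and transcription, each subunit's mutant library from a heterodimeric triplet polymerase ribozyme was annealed with a biotinylated primer, the partner subunit and triplets. Incubation was frozen, at −7 °C, and extended constructs were gel-excised, bound to streptavidin beads and amplified by RT-PCR, in one selection round done in triplicate. Fitness is the logarithm of a genotype's enrichment divided by that of the wild type, from inverse-variance-weighted replicate averages of Illumina-sequenced inputs and outputs. The base of the logarithm is 2, and genotypes needed ≥10 input reads and ≥1 read per output.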

In order of rising “polymerase ribozyme fitness (log ratio)” value:
1. C20G G51A G61A C85G A121U  -7.66
2. U21C A95C G107C U109A G113A C124U  -7.51
3. C20G C28U A37U A43U G45A U106A C123G  -7.36
4. U21C G23A G44C G48A A90U C97G C101U C102U C114A  -7.25
5. C20U A24U C56U  -6.92
6. C20U C22G G47A C72U C73U C101G A119G G122U  -6.75
7. C22A C70U G77C  -6.73
8. C20G A50C C80U G93A G120C U125G  -6.66
9. C20U G51U G71A  -6.53
10. C22A C31G G60U U96A  -6.4
11. C22A C31A C64G C97U C115A G127U U129G U130G  -6.15
12. C20G A50C  -6.14
13. C20G C97A U116C C123G  -5.78
14. C22A U116C A121G U129C  -5.72
15. C22A C72G A83G C115A  -5.56
16. G19C C62A U96A C124A G128C  -5.42
17. G19U G23C A27G A41C A46U G47C C70U C115U G135A  -5.42
18. U21A C22A C40U C73U C101A U133G  -5.39
19. C20U A26G A43G C53G C62A C82U  -5.29
20. G19U G45U G60U A119U  -5.1
21. C22A G39A  -5.08
22. U21C C22U C53G G57U G60A  -5.06
23. C20G G69U C99U  -5.06
24. G19U C72G U78A  -5.06
25. C20A G60A G113C  -5.06
26. G19U A29G  -4.96
27. C22A G44C A46U C101A A121C  -4.64
28. C20U C28U G45C  -4.64
29. G19C G61A U81G A84G A91G A111G  -4.6
30. C20A G113C  -4.5
31. C22A C49U C73G C124G  -4.49
32. G19U G69C  -4.45
33. C20U A26G G60C A90C  -4.37
34. C20A C70A C123A U130A  -4.36
35. G19U G122U C123A U129A  -4.23
36. U21C C22A G69C  -4.23
37. G19U G58C  -4.22
38. C20A U32A G93C  -4.21
39. G19U A41U G63C A111G  -4.2
40. C20A A43C C94U  -4.19
41. C20A G45C G57C C73G U106C U130G  -4.17
42. C20A G42C G48U G122U  -4.09
43. C20A G47U C72A A111C  -3.96
44. C20G C56U A84G A111C C115G A121C U132A  -3.92
45. U21A A27C  -3.89
46. G19U G69A  -3.8
47. C20A C49G G93A  -3.77
48. C20U G44A A74G U87C U92A G93A C124U  -3.64
49. C20A C56G  -3.63
50. C20U G57A G63A C115A  -3.54
51. C20A G63A  -3.49
52. G19U U87A  -3.34
53. G19U G61A  -3.31
54. G19C G69C C86G A121G  -3.28
55. C20A G127A  -3.23
56. C20U A95G C104A U109C C114U C124A  -3.03
57. C20G G36U U92C C101A U106A U109A  -3.02
58. U21A G69A U112A  -3
59. G19C C53G C62U C86U  -2.88
60. U21A G39C C49U G63A A75G A121C  -2.73
61. C20A C56U  -2.54
62. C20A C56A  -2.5
63. C20G U112C  -2.48
64. C20U G63C C94A G120C  -2.23
65. C20U C40G  -2.17
66. U21G A84C  -2.02
67. U21A G42C  -1.94
68. C20U U96G  -1.9
69. C20A G57C C62U  -1.88
70. C20U G52A C70U G120A  -1.85
71. U21A A46U C53A G63C  -1.83
72. U21C U78C U96C C114A  -1.81
73. C20U U55G C56A  -1.7
74. U21G G48C  -1.56
75. U21C U59G C101A  -1.38
76. C20G U21A C62U U112A  -1.31
77. C20U C123A  -0.867
78. G19U U55G C70U U87G A95C U112C C114A  -0.702
79. U21A C104U  -0.273
80. U21G A121U  0.0323
81. C20U G52A C124U  0.255
82. C20U C124G  0.389
83. U21C C124U  1.84
